Reference: patent US20220041738A1 (SAITAMA MEDICAL UNIVERSITY, published 2022)

Experiments:
[1] = molecular target: T1, Mouse ALK2-His&Fc (Sino Biological Inc., Cat. #50297-M03H) (mouse, UniProt P37172 21-123); assay: ELISA, antigen coated at 1 µg/ml, hybridoma culture supernatant, ALP anti-rat IgG, O.D.492
T1 construct: Bought product; also called mALK2-Fc; not shown: His tag and Fc of the bought product
T1 sequence: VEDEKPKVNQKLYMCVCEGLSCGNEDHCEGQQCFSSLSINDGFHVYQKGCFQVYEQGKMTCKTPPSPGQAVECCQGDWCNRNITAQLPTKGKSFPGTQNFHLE
Experimental: One week after the cell fusion, using each culture supernatant, clones recognizing mouse ALK2-His&Fc used as the antigen were selected by the enzyme-linked immunosorbent assay (ELISA), and clones recognizing only human Fc (Sino Biological Inc.) were excluded. ELISA was performed as follows.
First, the antigen diluted to 1 μg/ml with PBS was immobilized onto a 96-well ELISA plate (NUNC, Cat. #442404) for 2 hours at room temperature or overnight at 4° C. The immobilized solution was removed, and the plate was blocked with a 0.5% skim milk solution dissolved in PBS for 30 minutes at room temperature. Next, the above-described culture supernatant of hybridomas was added, and the plate was left for 1 hour at room temperature. After the plate was washed, an ALP-labeled anti-rat IgG antibody (SBA, Inc.) diluted with 0.5% skim milk to 1:2500 was added, and the plate was further left for 1 hour at room temperature. After the plate was washed, a phenyl phosphate substrate was reacted for 20 minutes at room temperature, and then absorbance at a wavelength of 492 nm was measured.

[2] = molecular target: T2, mouse ALK2(WT)-EGFP on HEK293A cells (mouse, UniProt P37172 21-509); assay: flow cytometry on transfected HEK293A cells, Alexa 647 anti-rat IgG (APC-A) against EGFP (FITC-A)
T2 construct: Expressed from pcDEF3/mouse ALK2(WT)-EGFP; also called mALK2(WT)-EGFP; wild-type mouse ALK2; not shown: EGFP fused to ALK2
T2 sequence: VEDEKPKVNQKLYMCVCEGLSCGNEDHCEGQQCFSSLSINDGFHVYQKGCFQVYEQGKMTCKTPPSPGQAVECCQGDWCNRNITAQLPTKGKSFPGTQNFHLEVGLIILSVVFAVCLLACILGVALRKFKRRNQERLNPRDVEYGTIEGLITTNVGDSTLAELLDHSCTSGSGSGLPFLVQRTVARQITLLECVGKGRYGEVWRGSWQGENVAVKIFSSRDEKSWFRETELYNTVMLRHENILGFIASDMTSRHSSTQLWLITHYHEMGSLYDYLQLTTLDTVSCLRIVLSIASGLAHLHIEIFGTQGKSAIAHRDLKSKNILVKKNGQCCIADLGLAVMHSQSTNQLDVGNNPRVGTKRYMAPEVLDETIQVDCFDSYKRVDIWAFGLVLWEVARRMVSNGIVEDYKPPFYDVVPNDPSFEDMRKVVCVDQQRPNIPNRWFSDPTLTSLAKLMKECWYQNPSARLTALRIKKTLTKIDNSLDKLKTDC
Experimental: (§1) HEK293A cells were seeded into a 100-mm dish at 3×10⁴ cells/cm², and cultured overnight in 15% FBS-containing DMEM medium under the conditions of 5% CO₂ at 37° C. On the following day, the HEK293A cells were transfected with each of pcDEF3/mouse ALK2(WT)-EGFP, pcDEF3/human ALK2(WT)-EGFP, pcDEF3/human ALK2 (R206H)-EGFP, and pcDEF3, using Lipofectamine 2000 (Invitrogen), and further cultured overnight. On the following day, 100 μL each of the cell suspensions adjusted to 1×10⁶ cells/mL was dispensed into a 1.5-mL microfuge and centrifuged at 500 g for 5 minutes, and then the supernatant was removed. To the cells, 100 μL of purified IgG diluted to 1 μg/mL was added, and the cells were left for 30 minutes at 4° C. After the cells were washed with PBS three times, 100 μL of Alexa flour 647 Goat anti-Rat IgG (H+L) (Life Technologies) diluted to 1:200 was added, and the cells were further left for 30 minutes at 4° C. After the cells were washed with PBS three times, fluorescence was detected by a flow cytometer (FACS Aria II: BD Biosciences). The data was analyzed using BD Diva Software (BD Biosciences), and the intensity of EGFP expressed by the cells and the fluorescence intensity of stained Alexa flour 647 were plotted.

[3] = molecular target: T3, human ALK2(R206H)-EGFP on HEK293A cells (human, UniProt Q04771 21-509); assay: as above
T3 construct: also called hALK2(R206H)-EGFP; FOP human ALK2; not shown: EGFP fused to ALK2
T3 sequence: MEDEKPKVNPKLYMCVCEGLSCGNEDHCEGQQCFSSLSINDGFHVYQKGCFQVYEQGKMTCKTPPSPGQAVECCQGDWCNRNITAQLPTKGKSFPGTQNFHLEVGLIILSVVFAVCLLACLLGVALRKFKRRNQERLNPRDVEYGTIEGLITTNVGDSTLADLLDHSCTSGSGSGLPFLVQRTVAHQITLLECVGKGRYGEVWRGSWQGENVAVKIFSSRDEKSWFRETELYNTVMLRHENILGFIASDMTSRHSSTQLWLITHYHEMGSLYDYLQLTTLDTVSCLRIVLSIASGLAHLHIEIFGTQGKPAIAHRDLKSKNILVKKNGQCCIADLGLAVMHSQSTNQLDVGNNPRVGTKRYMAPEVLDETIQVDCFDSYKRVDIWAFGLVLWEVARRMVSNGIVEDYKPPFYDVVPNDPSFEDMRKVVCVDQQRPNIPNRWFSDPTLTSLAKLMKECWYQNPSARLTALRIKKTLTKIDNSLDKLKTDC
Experimental: as §1

Measured: binding result

B1: rat anti-ALK2 monoclonal antibody A2-25C (antibody, V domains shown)
VH: EVQLVESGGGLVQPGGSLKLSCAASGFTFSYYAMSWVCQAPTKGLEWVASISRGGDNTYYRDTVKGRFTTSRDNAKNTLYLQMDSLRSEDTATYYCARLNYNNYFDYWGQGVMVTVSS
VL: DIQMTQSPASLSASLEEIVTITCQASQDIGNWLSWYQQKPGKSPQLLIYGATSLADGVPSRFSGSRSGTQYSLKISRLRVEDIGIYYCLQAYSAPFTFGSGTKLEIKR
notes: Rat monoclonal IgG from a hybridoma; also called 25C11
binds: all assays above

B2: rat anti-ALK2 monoclonal antibody A2-15A (antibody, V domains shown)
VH: EVQLVESGGGLVQPGRSLKLSCAASGFTFSHYYMAWVRQAPTKGLEWVASITNSGGSINYRDSVKGRFTISRDNAKSTLYLQMDSLRSEDTATYYCTREGGENYGGYPPFAYWGQGTLVTVSS
VL: DIVLTQSPALAVSLGQRATISCRANQGVSLSRYNLMHWYQQKPGQKPKLLIYRSSNLASGIPARFSGSGSGTDFTLTINPVQADDIATYYCQQSRESPFTFGAGTKLELKR
notes: Rat monoclonal IgG from a hybridoma; also called 15A6
binds: all assays above

B3: rat anti-ALK2 monoclonal antibody A2-11E (antibody, V domains shown)
VH: EVQLVETGGGLVQPGRSLKLSCVASGFTFSNYYMYWIRQAPGKGLEWISSINTDGGSTYYPDSVKGRFAISRDNAENTVYLQMNSLRSEDTATYYCAKSTPNIPLAYWGQGTLVTVSS
VL: DIQMTQSPSLLSASVGDRVTLSCKASQNIYKYLNWFQQKLGEAPKLLIYYSNSLQTGIPSRFSGSGSGTDFTLTISSLQPEDVAIYFCFQYSSGPTFGPGTKLELKR
notes: Rat monoclonal IgG from a hybridoma; also called 11E2
binds: all assays above

B4: rat anti-ALK2 monoclonal antibody A2-27D (antibody, V domains shown)
VH: EVQLVESGGGLVQPGRSLKLSCLASGSTFSNYGMKWIRQAPGKGLEWVASISRSSTYIYYADTVKGRFTISRDNARNTLYLQMTSLRSEDTALYYCAAAISTPFYWYFDFWGPGTVVTVSS
VL: EIVLTQSPTTMAASPGEKVTLNCLASSSVSYMTWYQQKSGASPKLWIYGTSNLASGVPNRFSGSGSGTSYSLAISSMEAEDVATYYCLHLTSYPPYTFGAGTKLELKR
notes: Rat monoclonal IgG from a hybridoma; also called 27D11
binds: all assays above
